Laboratory results: article PMC8577781

These substances were tested against human recombinant CXCL10 (human) (UniProt P02778).
Chain of UniProt P02778 (P02778 22-98): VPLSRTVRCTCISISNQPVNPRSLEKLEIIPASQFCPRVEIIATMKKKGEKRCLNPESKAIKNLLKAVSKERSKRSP

Substance | CXCL10 cleavage rate: GP63 in conditioned medium incubated with 1000 pg/mL CXCL10 for 2 hours, remaining CXCL10 measured by ELISA, rate by linear regression [pg/mL/min]
L. (L.) major GP63 triple mutant gp63^GYSNGA (from UniProt P08148 40-577) (enzyme) | 0.14
L. (L.) major GP63 (glycoprotein-63), wild-type allele gp63^PYSDGS (from UniProt P08148 40-577) (enzyme) | 6.07
L. (L.) major GP63 D463N mutant gp63^PYSNGS (from UniProt P08148 40-577) (enzyme) | 1.16
